Source: US11788081 (STICHTING VU, dated 2023)
Non-standard residues stand in square brackets, D forms with d. *: point of attachment. FITC = O=C1OC2(c3ccc(O)cc3Oc3cc(O)ccc32)c2ccc(NC(=S)*)cc21; Nle = CCCC[C@H](N)C(=O)O; AEEA = NCCOCCOCC(=O)O

Molecular target: T1, KIX domain from the human CREB binding protein (KIX wt) (human, UniProt Q92793 587-672)
T1 construct: domain: KIX domain; Expressed as GST fusion in E. coli, GST removed by PreScission cleavage
Experiment: fluorescence polarization, FITC-labeled MLL peptide, protein titrated 70 µM-0 µM
Protocol: Binding of K1-t1 and K1-t2 to mixed lineage leukemia (MLL) transcription factor was evaluated using the FITC-labeled peptide FITC-020c-[…](Nle)[…]-NH2 (SEQ ID NO: 6). This sequence is derived from MLL and will be refereed as MLL peptide throughout. A 40 nM solution of MLL peptide in 25 mM HEPES (pH 7.4), 100 mM NaCl and 2 mM TCEP was prepared. A 3-fold dilution of KIX, K1-t1 and K1-t2 was performed in 14 steps on a 384-well-plate (black, round bottom, Corning) using the same buffer. 5 μL of 40 nM MLL peptide solution was then added, and the final 20 μL solution was incubated at r.t. A final protein range of 70 μM-0 μM was used. After 1 h-incubation, fluorescence polarization was measured using a Spark 20M plate reader (Tecan) with λ(ex)=485 nm and λ(em)=525 nm. Kd were determined by applying nonlinear regression analysis of dose-response curves in GraphPad Prism software.

T1 sequence (Q92793 587-672 limits assumed): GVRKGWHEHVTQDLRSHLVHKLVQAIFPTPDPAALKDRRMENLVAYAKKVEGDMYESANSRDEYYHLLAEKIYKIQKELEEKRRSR

Kd: 600 nM
B1: MLL peptide FITC-O2Oc-GNILPSDI(Nle)DFVLKNTP-NH2 (peptide)
peptide: {FITC-AEEA}-GNILPSDI[Nle]DFVLKNTP-NH2
notes: Synthetic peptide made by Fmoc SPPS on Rink amide resin; Used at 10 nM final (5 uL of 40 nM in 20 uL) in the FP assay; also called mixed lineage leukemia (MLL) transcription factor derived peptide
